According to a protein production outcome set (Wang et al. 2014):

Experiment: label from the status in PepcDB records

Sequence: MKNSFLCVGSFLLAASFFTSCTEDKDWSGGLKNSDLVFQTYLPTEGAKGTELSIRGNNFGEDISQVQVWVNEKEAEVISVTSTRIMARVAEASGSGVVKVRVGEVVYSYPDLFSYGYIRNVYTVAGNGQGTTVDGAYLQASVQWPIVMVYDKWDDAILFLQDEGEHRIRRMKDGKIETLCSTKSLVNNARSICFSLDGDTLFIGNDNANNYVANPVAVGMVTRKGGFKDLKSYIPSEKLAQPHINGIAVNPVDGSLFTYHWGRHVFRYNKATETCEYVITRDQFNELVVGLFPDADGNMQNIGGDGGYGGLAFSPDGKTLYWNGRDPYQGILKADYDLVTKKCTNLTRFAGNGVWGIIDGQGVSSRMDQPNQIAVDAEGNLLVTTVYGRTVRKITPEGYVSTYAGIGYQTGYVDGLAAEAKFNKPYGIAIDAQGNVYVGDCENWRIRVIKEE
- protein production: failed

Sequence: MPYVFSFKMPQEQGQMFQYYPVYMVLPWEQPQQTVPRSPQQTRQQQYEEQIPFYAQFGYIPQLAEPAISGGQQQLAFDPQLGTAPEIAVMSTGEEIPYLQKEAINFRHDSAGVFMPSTSPKPSTTNVFTSAVDQTITPELPEEKDKTDSLREP
- protein production: failed

Sequence: MEYSFYDFLKLIGSLGLFLYGMKIMSEGLQKVAGDRLRGILTAMTTNRVTGVLTGVLITALIQSSSATTVMVVSFVNAGLLTLAESISVIMGANIGTTVTAWIISIFGFKVDMAAFALPLLAIALPLIFSGKSNRKSIGEFIFGFSFLFMGLSYLKANAPDLNANPEMLAFVQNYTDMGFFSVLLFLFIGTILTMIVQASAATMAITLIMCANGWISLELGAALVLGENIGTTITANLAALTANSQAKRAALAHFVFNVFGVIWVLIIFHPFMVFVNWVVDTFFHPGSAEVAISYKLSAFHSIFNICNVCLLIWGVKLIERTVCAIIRPKEEDEEPRLRFITGGMLSTAELSILQARKEIHLFSERIHRMFGMVQDLLHTEKDDDFNKLFSRIEKYENISDNMELEIANYLNQVSEGRLSSESKLQIRAMLREVTEIESIGDSCYNLARTISRKRQTNQDFTEKQYEHIHFMMKLTNDALSQMIVVVEKPEHQSIDVNKSFNIENEINNYRNQLKNQNILDVNNKEYDYQMGVYYMDIIAECEKLGDYVVNVVEASSDVKEKKAS
- protein production: failed

Sequence: MVNQNLTATEIGFTHEDFAALLDKYDYHFSPGDVVPGTVFSIEPRGALIDIGAKTAAYIPIQEMSINRVDAPEEVLQSNETREFFILTDENEDGQLTLSIRRIEYMRAWERVRQLQAEDATVRSGVFATNRGGALVRIEGLRGFIPGSHISTRKPKEELVGEELPLKFLEVDEERNRLVLSHRRALVERKMNRLEVGEVVIGTVRGIKPYGAFIDIGGVSGLLHISEISHEHIDTPHSVFNVNDEVKVMIIDLDAERGRISLSTKQLEPEPGDMIKNRDLVYDKAEEMAAKYREQLLAKQQGITLPAEGAEDLIEEEIPPATEDAVAEEEIVAVEEIPAAIEE
- protein production: failed

Sequence: MIWIILASFLMYSIFVMWFSWYKTRGTDLSSSDGYFLGGRSLTGIVIASSLILTNLSTEQVVGLNGQAFGESMVVMAWEVTAPIALILMAFVFLPRYLKLGITTIPDFLEQRFDLRTRQIVSVLFLLGYATVFLPTVLYSGALVIDSIFSLSSVMDISPFMIVLCISIAIGIISCGYVILGGLKACAMSDTINGIGLIIGGLLIPILALFVLGRGDFASGVGELVSANPTKLNAIGNDQASVPWAVLLTGLLFNNLFYWCTNQSIIQRTLAAKNLAEGQKGVLFAGMFKIFGAAFLVLPGIIAYLLYGDVLANADMAYPSLVIDVMPVALSGFLAAVLFGAILSSFNNVLNSSITLFTLDIYKPIFKPNAKEPELVKAGRIFAACLAITAVVIAPFILYAPQGLYYFLQEMNGFYSLPIIAMVIVGFFSKYVPASAPKVLVAVHVVLYAGSKVVLGEVNFLYVLSVLFPINVLVMLIVGRLKPRETSFVLPTANKVDLTPWKYAKPFSAFILLTMLGVYTFFSPLGVAESSGGYTIYQFIFFIVTLAFIGGVVLFWKKTDRIRGGRVPLNQMYPFNQKSG
- protein production: failed

Sequence: FDGNLKRYLKSEPIPESNDGPVKVVVAENFDEIVNNENKDVLIEFYAPWCGHCKNLEPKYKELGEKLSKDPNIVIAKMDATANDVPSPYEVRGFPTIYFSPANKKLNPKKYEGGRELSDFISYLQREAT
- protein production: not failed

Sequence: MNVIGKVTVLPQLPAEIARLSELAYNLYWSWTPRAQALYRDLSPELWERFQHNPVRLLLEADQDRLNAAAQDPAYLGRYAQVMADFDAYMGKKDTWAARHAPQMKPVAYFSMEYAFHESLPIYSGGLGVLAGDHCKSASDLGLPFTAVGMLFSQGYFRQLFDKDGWQNEAYDELDLTTLPIQPAQSAAGEDIRVSVRIAGREVAVKVWTLQVGRVRVLLLDSNVPDNSEDDRKLTARLYGGNQELRVQQYVLLGVAGIRALRALDVPASVYHMNEGHAALMALERMREYVAAGQDFRTAAELAASSTLFTTHTPVAAGNDAFTYELMDKYIGEWPGLLHAGRDELYALARHDQQWDGHTVPAFSMTVFALSMSRAANGVSELHGEVSRGMWNFLYPGAEENEVPIGHVTNGAHNLTFTSQRMRDLLSTVLPEDWTERLEDETMWQAVEQLTEEQLSNVQREMKREMITFVRGRVREQLLRNGASAADVAATDNLLDEGTLTIGFARRFATYKRATLLLRDKPRLAAIVNNPERPVQFVFAGKAHPADNPGKAFIQEIYRTSQEPEFRGKIVILENYDMNVARHLVQGVDIWLNNPRRPLEASGTSGMKASFNGSPNFSVLDGWWREGYDGTNGWPIGEEREYADLNVQDDADAFDLYQRLEHEIAPRYYGHAQGNASWAHTVRDAIETVSPRFSMQRQVLDYVQQYYLPLGQRGTQLADHGGARARDLAAWKAWVRQQWPHTSISAQANLPATARPGEQVTVSAQVNPAGIRPEELRVEAVLKRGDEVQRYPLAPGEGGQYSAEIPLDDSGLYSVGVRMLPLIDGLSNDLEAGLIKWA
- protein production: failed

Sequence: MNLPCQWPRSQQADKHGRFPINRDQRRAAGAGTRSGAGGQPPLGLDQYVQQALQLHQAGRRQEAESIYRQVLARQPKHAAAAHFLGLLLHQTGRSEEGLDLIERSVSLQPTNADFLNNFGTVMRDLGRVAAAIDFFRGAVDLRPEQLAARDNLGSSLKQLGRFEEAEDIYRGTVARNPFHVRARIGLAETLQEAGRLDEALAVFRESLTIRPKDADLLHGLGVGMMEKGKLDEAADLFRQALAVNPGMATAWLMLTQVKRQKERDAELAGMEAQHAKAPQDSLARMQLSFGLGKANDDLKDYNRAFDYFAEGNAIRRKGIDYDPVRTREEFAAMKTVFDAGFFERHRPSPISDDAPIFVVGMPRSGTTLVEQIIASHPQVYGAGELSILKKAVGKQFPTTMPGGFPWGVADTDDADFAEAGQAYLDMLHARYPHLSHVTDKMPGNFLLVGFIHMMMPKAKIIHCTRDAAATCLSIYKVHFRGDSHRYGYDLGELADFHNLYTDIMAHWHKVLPGVVHDVRYEDFVADQEGQSRALIDYLGLPWDDAVLSFHATDRPVRTASAAQVRQPMYQGSVDLWKRYGDRLKPLLDKLD
- protein production: failed

Sequence: MMRSVGAVGEPLVVMCVACPRRGGCVVTVVAAAKSCWCRGVSRNLNPGLCPARRVSVRHSGSCILWCGLPSGRVAAVSLPSDPRRFQRIYIEWQSIYLLNMAQQQRMQGQPMIIMGDDAQRVKDRDAQEHNISAARAVADAVRSTLGPKGMDKMLVSSMGDVTVTNDGVTILQEMDIDNPTAEMIVEVAETQEDEAGDGTTTAVAIAGELLKNAEDLLERDIHPTAIIKGYNLAAEQAREEVDNVAVDVDPDDKDLIRSVAETSMTGKGAELDKELLSSIIYDAVNQVAVETNDGGIVVDAANINIETQTGHGVNESQLLRGAAISKDPVHDQMPAAVEDADVLLLNEAIEVEEAEADTSVNIESPDQLQSFLDQEEKQLKEKVQQIADTGANVVFCQKGIDDMAQHYLAKEGILAVRRTKKSDIEFLTNVLDASVVTDLDAASEADVVAGSVTRDSDDELFYVEGESEQAHGVTLLLRGSTDHVVDELERGVSDALDVSAQTLSDGRVLPGGGATEVEVASRLRDFADSVSGREQLAVEAFADSLELVPRVLAENAGLDSIDTLVDLRSAHENDDDEHIGLNVLSGDLEDTFEAGVVEPAHAKEQAVTSASEAANLVLKIDDIISAGDLSTDKGDDDGGAGGMGGGMGGGMGGMM
- protein production: failed

Sequence: MLLENFYKIIHIKEREDGKQEIEIELNPGHVLYQGHFPGQPVVPGVCTLQIIKESAEQIASQPLQYVQIASSKFLSAINPLETPLLQLFIRLEKTEEHLFKLQAEGICNGKEFIKLKAVLMASKYQLEHHHHHH
- protein production: not failed

Sequence: MSLTSSAELAEVDTLARSLLLYRSRLSEYAHANPGFSGSPADSALGLPAWFRKPVRLQGYIAAGTSYAFIASPPAGLAAAVDAGTESDLVGVRRNGQLVTRRLGAIAIALPAPIPEGAVVAVKEGHHHHHH
- protein production: not failed
